# Laboratory results taken from paper PMC7659722 (The Journal of Cell Biology, 2020).
# Target: the molecule itself
# Assay: SDS-PAGE
protein,measurement,value
"recombinant human FIT2 WT, 3FLAG-tagged (enzyme, UniProt Q8N6M3 1-262, looked up) MEHLERCEWLLRGTLVRAAVRRYLPWALVASMLAGSLLKELSPLPESYLSNKRNVLNVYFVKVAWAWTFCLLLPFIALTNYHLTGKAGLVLRRLSTLLVGTAIWYICTSIFSNIEHYTGSCYQSPALEGVRKEHQSKQQCHQEGGFWHGFDISGHSFLLTFCALMIVEEMSVLHEVKTDRSHCLHTAITTLVVALGILTFIWVLMFLCTAVYFHNLSQKVFGTLFGLLSWYGTYGFWYPKAFSPGLPPQSCSLNLKQDSYKK",binding result,binds
